Measurements as given in US20220031857A1.

Columns and labels:
[1] = molecular target: recombinant mouse TfR1 (transferrin receptor 1) (mouse) (UniProt Q62351); experiment: SPR (Biacore), single-cycle kinetics, His-tagged TfR1 captured, VNAR-Fc injected
[2] = molecular target: recombinant human TfR1 (transferrin receptor 1) (human) (UniProt P02786); experiment: as above
[3] = molecular target: recombinant human TfR1 (transferrin receptor 1) (human) (UniProt P02786); experiment: Octet, human TfR1 immobilised on biosensors; row buffer (no first antibody), column cont. (taken as the control VNAR F02)
[4] = molecular target: recombinant mouse TfR1 (transferrin receptor 1) (mouse) (UniProt Q62351); experiment: ELISA, plate coated with 1 µg/ml recombinant mouse TfR1, purified VNAR-Fc titrated, 4-parameter fit
[5] = molecular target: recombinant human TfR1 (transferrin receptor 1) (human) (UniProt P02786); experiment: ELISA, plate coated with 1 µg/ml recombinant human TfR1, purified VNAR-Fc titrated, 4-parameter fit
[6] = molecular target: recombinant mouse TfR1 (transferrin receptor 1) (mouse) (UniProt Q62351); experiment: Octet, mouse TfR1 on anti-His biosensors, analyte 10 nM, PBS pH 7.2
[7] = molecular target: recombinant mouse TfR1 (transferrin receptor 1) (mouse) (UniProt Q62351); experiment: ELISA on coated mouse TfR1, purified VNAR-Fc
[8] = molecular target: recombinant human TfR1 (transferrin receptor 1) (human) (UniProt P02786); experiment: Octet, human TfR1 immobilised; 8D3 as first antibody, which does not bind human TfR1 (grey column); white cell; cont. taken as the control VNAR F02
[9] = molecular target: recombinant mouse TfR1 (transferrin receptor 1) (mouse) (UniProt Q62351); experiment: Octet, mouse TfR1 immobilised on biosensors; row buffer (no first antibody), column cont. (taken as the control VNAR F02)
[10] = molecular target: recombinant mouse TfR1 (transferrin receptor 1) (mouse) (UniProt Q62351); experiment: Octet, mouse TfR1 on anti-His biosensors, analyte 10 nM, PBS pH 6.0
[11] = molecular target: recombinant human TfR1 (transferrin receptor 1) (human) (UniProt P02786); experiment: ELISA on coated human TfR1, purified VNAR-Fc

Chain of recombinant human TfR1 (transferrin receptor 1) (human) (P02786 89-760 limits assumed): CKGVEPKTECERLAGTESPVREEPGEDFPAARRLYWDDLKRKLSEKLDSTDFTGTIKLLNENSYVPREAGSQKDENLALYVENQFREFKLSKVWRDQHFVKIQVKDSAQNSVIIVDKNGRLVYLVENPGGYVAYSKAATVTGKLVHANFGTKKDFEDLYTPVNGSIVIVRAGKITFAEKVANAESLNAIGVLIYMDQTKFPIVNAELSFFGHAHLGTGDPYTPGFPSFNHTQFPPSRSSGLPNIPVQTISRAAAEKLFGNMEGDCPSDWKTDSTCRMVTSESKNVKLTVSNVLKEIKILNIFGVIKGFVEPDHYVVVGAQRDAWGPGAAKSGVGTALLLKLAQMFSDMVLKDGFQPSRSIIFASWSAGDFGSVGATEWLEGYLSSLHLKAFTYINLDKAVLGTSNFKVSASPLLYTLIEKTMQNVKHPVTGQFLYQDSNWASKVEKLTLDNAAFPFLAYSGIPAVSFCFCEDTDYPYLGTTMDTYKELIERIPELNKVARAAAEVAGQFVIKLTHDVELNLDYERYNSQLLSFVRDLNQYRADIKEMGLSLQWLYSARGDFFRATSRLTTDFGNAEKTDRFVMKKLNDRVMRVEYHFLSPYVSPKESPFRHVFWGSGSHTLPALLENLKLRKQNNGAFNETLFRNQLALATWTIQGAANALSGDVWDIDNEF
Chain of recombinant mouse TfR1 (transferrin receptor 1) (mouse) (Q62351 89-763 limits assumed): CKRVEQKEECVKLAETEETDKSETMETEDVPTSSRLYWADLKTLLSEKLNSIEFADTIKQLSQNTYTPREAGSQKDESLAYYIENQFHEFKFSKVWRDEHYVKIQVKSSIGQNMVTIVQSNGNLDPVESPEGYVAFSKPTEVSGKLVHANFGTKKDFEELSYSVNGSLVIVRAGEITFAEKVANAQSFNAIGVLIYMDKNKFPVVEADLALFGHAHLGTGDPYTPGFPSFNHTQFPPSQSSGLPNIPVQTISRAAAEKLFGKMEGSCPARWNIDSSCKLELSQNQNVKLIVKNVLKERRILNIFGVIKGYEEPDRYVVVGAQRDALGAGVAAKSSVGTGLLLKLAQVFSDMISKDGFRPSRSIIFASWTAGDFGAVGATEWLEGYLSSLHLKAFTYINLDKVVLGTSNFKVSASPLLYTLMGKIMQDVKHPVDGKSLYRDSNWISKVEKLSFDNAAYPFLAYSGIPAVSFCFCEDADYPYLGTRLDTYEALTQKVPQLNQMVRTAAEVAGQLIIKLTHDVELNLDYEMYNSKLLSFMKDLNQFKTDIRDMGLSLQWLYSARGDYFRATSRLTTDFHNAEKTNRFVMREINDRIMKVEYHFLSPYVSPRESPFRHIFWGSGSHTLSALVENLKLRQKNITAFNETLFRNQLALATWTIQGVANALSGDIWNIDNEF

- Kd [1]: 1.46 nM
- koff [1]: 0.00016 s⁻¹
- kon [1]: 109000 M⁻¹ s⁻¹
- Kd [2]: 0.969 nM
- koff [2]: 0.00011 s⁻¹
- kon [2]: 113000 M⁻¹ s⁻¹
- Octet signal as second antibody after buffer [3]: 0.386
- EC50 [4]: 38.2 nM
- EC50 [5]: 3.69 nM
- Kd [6]: 0.294 nM
- koff [6]: 9.86e-05 s⁻¹
- kon [6]: 335000 M⁻¹ s⁻¹
- EC50 [7]: 10 nM
- Octet signal as second antibody after 8D3 [8]: 0.381
- Octet signal as second antibody after buffer [9]: 0.194
- Kd [10]: 0.344 nM
- koff [10]: 0.000147 s⁻¹
- kon [10]: 426000 M⁻¹ s⁻¹
- EC50 [11]: 1 nM
Substance: F02 control VNAR-Fc (Fc fusion)
